Results from the supplement of paper PMC10266784.

B1: library; numbered along this chain (parent)
chain: MAAAAAAAAEQQSSNGPVKKSMREKAVERRSVNKEHNSNFKAGYIPIDEDRLHKTGLRGRKGNLAICVIILLFILAVINLIITLVIWAVIRIGPNGCDSMEFHESGLLRFKQVSDMGVIHPLYKSTVGGRRNENLVITGNNQPIVFQQGTTKLSVENNKTSITSDIGMQFFDPRTQNILFSTDYETHEFHLPSGVKSLNVQKASTERITSNATSDLNIKVDGRAIVRGNEGVFIMGKTIEFHMGGNMELKAENSIILNGSVMVSTTRLPSSSSGDQLGSGDWVRYKLCMCADGTLFKVQVTSQNMGCQISDNPCGNTH

Variants of: B1
Experiment: SGCB cell-surface expression functional score (HA stain, bin4 vs bin1, normalised to synonymous) (log10 ratio); higher = more cell-surface SGCB (functional)
Method in brief: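 HEK293 cells stably expressing alpha-, gamma- and delta-sarcoglycan received codon-saturation libraries of HA-tagged, YFP-fused human beta-sarcoglycan by lentiviral transduction at MOI <0.1, performed in duplicate. Cells positive for YFP were sorted after 72 hours and cultured for 5–7 days, then stained on ice with Alexa Fluor 647 anti-HA and fixed. Fixed cells were sorted into four 5% intensity bins and amplicon-sequenced, and the log ratio of highest-bin to lowest-bin variant frequency, as a median over codons and transductions, gives the functional score. Per section, synonymous variants were scaled to mean 0, SD 0.5.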

SGCB cell-surface expression functional score (log10): each site, then its substitutions
N229: A 0.8 | E 0.51 | S 0.94 | G 0.8 | W 0 | L 0.33 | C 0.72 | R 0.82 | D 0.08 | V 0.87 | T 0.29 | I 0.92 | P 0.68 | F 1.19 | H 1.03 | Q 0.93 | K 0.95 | Y -0.25 | M 1.28
D215: I -0.99 | H -0.39 | N 0.41 | K 0 | V -0.56 | M -1 | S -0.25 | A -0.72 | Q -1.03 | E 0.16 | P -0.55 | C -1.31 | R -0.63 | G -0.26 | L -1.51 | Y -0.46 | T -0.88 | F -1.47
I225: R 0.53 | N 0.09 | F 0.71 | A 0.41 | L 0.83 | E 1.24 | W 0.02 | P -1.25 | K 0.58 | D 0.7 | Y 1.24 | T 0.51 | G 0.01 | S 0.63 | C 0.31 | V 0.48 | H 0.53 | Q 0.49 | M 0.37
L216: K -0.59 | R -1.93 | F -0.42 | D -2.69 | G -1.5 | W -0.99 | S -1.57 | C -2.34 | Q -0.15 | E -1.92 | V -2.64 | Y -1.59 | A -1.97 | I -0.71 | T -1.02 | P -1.25 | M 0.99 | N -1.72 | H -2.1
R227: T 0.88 | F -0.49 | E 1.04 | K 1.05 | Y 0.15 | P -1.23 | L 0.68 | Q 0.55 | A 0.72 | N -0.13 | W 0.59 | G 0.48 | C 0.03 | M 1.08 | I -0.01 | D 0.42 | H 0.55 | V 0.81 | S 0.71
K219: S 0.32 | I 0.23 | R 0.05 | F 0.64 | C 0.59 | M 0.67 | P -0.21 | Q 0.3 | Y -0.13 | E -0.03 | D 0.29 | G -0.33 | A 0.76 | L 0.3 | V -0.18 | T 0.6 | W -0.31 | N -0.17 | H 0.53
V220: G 0.34 | M 0.77 | D -0.38 | Y -0.43 | R -1.12 | F -0.09 | A 0.7 | C 0.09 | E -0.86 | W -1.67 | H 0.43 | I 0.43 | K -0.09 | P 0.3 | L 0.84 | N 0.09 | Q -0.31 | S 0.45 | T 0.63
N217: H 0 | A 0.9 | L 0.37 | I 0.1 | Q 0.77 | F 1.13 | M 0.27 | W -1.28 | R 0.7 | D 0.2 | V 0.65 | S 0.54 | Y 0.59 | G 0.5 | E 0.9 | T 0.16 | P -1.08 | C -0.04 | K 0.3
E230: Q 0.32 | T 1.29 | H 0.9 | I 0.14 | W 0.47 | C 1.05 | N 0.82 | G 0.43 | R 0.28 | K 0.42 | V 0.49 | Y 0.86 | D 0.26 | L 0.63 | P -0.01 | M 0.53 | S 0.75 | A 0.38 | F 1.05
D221: M 0.53 | I 0.45 | V 0.59 | S 0.59 | W 0.8 | N -0.22 | Q 0.74 | P 0.1 | T 0.96 | H 0.75 | A 0.18 | L 0.62 | C -0.33 | K 0.13 | R 0.19 | E 0.01 | G 0.35 | Y 0.42 | F 1
V232: E -1.63 | G -0.27 | F 0.02 | A -0.53 | D -1.72 | H 0.69 | I 0.47 | L 0.35 | M 0.68 | C 0.7 | K -1.43
G222: P -1.42 | K 0.81 | R -0.06 | F 0.36 | C 0.58 | D -0.04 | Q 0.85 | I -0.41 | S 0.06 | L 0.26 | V -0.07 | T 0.6 | M 0.55 | E 0.65 | N 1.22 | H 1.21 | W 0.49 | Y 0.21 | A 0.63
S214: Y -1.74
V226: C 0.33 | Y -0.87 | E 0.47 | L 0.56 | F 0.29 | T 0.44 | R -1.54 | Q -0.68 | K -1.06 | A 0.3 | S 0.01 | H -1.36 | N -0.64 | P -0.81 | I 0.04 | M 0.21 | W -1.37 | G -0.26 | D -1.82
G228: V -1.04 | H -1.79 | P -1.47 | N -0.63 | M -0.15 | Q -1.35 | T -0.37 | R -0.47 | I -1.44 | F -0.64 | K -1.33 | Y -2.12 | A 0.3 | L -1.15 | E -0.84 | D -1.5 | C 0.31 | W -1.51 | S 0.43
R223: W 0 | Y 0.77 | T 0.4 | D 0.48 | E 0.43 | N 0.66 | Q 0.48 | M 0.82 | H 0.2 | K 0.86 | F -0.62 | L 0.34 | G 0.12 | A 0.72 | P 0.58 | V -0.13 | I 0.02 | C 0.4 | S 0.18
I218: C -0.48 | L 0.56 | V 0.46 | N -1.03 | D -1.45 | W -0.149 | F 0.87 | P -0.63 | R -1.49 | G -1.15 | E -1.24 | K -1.78 | T -0.49 | S -1.26 | A -0.08 | M 0.26 | H -2.33 | Y -1.39 | Q -2.02
A224: N -0.26 | S 0.3 | T 0.39 | G -0.16 | E -1.01 | H -0.71 | F 0.35 | P -1.81 | Q -0.44 | D -0.97 | W -1.5 | I 1 | M 0.59 | C 0.31 | K -2.05 | L 1.04 | Y -0.45 | V 0.53 | R -1.54
G231: W -1.9 | N -0.19 | Q -0.92 | A -0.01 | V -1.02 | L -0.37 | R 0.27 | S -0.88 | C -0.5 | D -0.08 | E 0.17 | H -0.09 | F -0.12 | K -1.12 | Y 0.68 | M -1.23 | P -1.37 | T -0.29 | I -1.29
